Measurements reported in publication PMC11208152, “Dynamic Arabidopsis P5CS filament facilitates substrate channelling” (Nature Plants, 2024).

B1: Arabidopsis thaliana delta-1-pyrroline-5-carboxylate synthase 2 (AtP5CS2), wild type (enzyme, UniProt P54888 1-726, looked up)
chain: MTEIDRSRAFAKDVKRIVVKVGTAVVTGKGGRLALGRLGAICEQLAELNSDGFEVILVSSGAVGLGRQRLRYRQLVNSSFADLQKPQMELDGKACAGVGQSSLMAYYETMFDQLDVTVAQMLVTDSSFRDKDFRKQLSETVKAMLRMRVIPVFNENDAISTRRAPYKDSTGIFWDNDSLAALLSLELKADLLILLSDVEGLYTGPPSDSTSKLIHTFIKEKHQDEITFGEKSKLGRGGMTAKVKAAVNAAYGGVPVIITSGYAAENISKVLRGLRVGTLFHQDAHLWAPVVDTTSRDMAVAARESSRKLQALSSEDRKQILHDIANALEVNEKTIKAENDLDVAAAQEAGYEESLVARLVMKPGKISSLAASVRQLAEMEDPIGRVLKKTQVADDLILEKTSSPIGVLLIVFESRPDALVQIASLAIRSGNGLLLKGGKEARRSNAILHKVITDAIPETVGGKLIGLVTSREEIPDLLKLDDVIDLVIPRGSNKLVSQIKNSTKIPVLGHADGICHVYVDKSGKLDMAKRIVSDAKLDYPAACNAMETLLVHKDLEQNGFLDDLIYVLQTKGVTLYGGPRASAKLNIPETKSFHHEYSSKACTVEIVEDVYGAIDHIHQHGSAHTDCIVTEDSEVAEIFLRQVDSAAVFHNASTRFSDGFRFGLGAEVGISTSRIHARGPVGVEGLLTTRWIMRGKGQVVDGDNGIVYTHKDLPVLQRTEAVENGI
notes: Delta-1-pyrroline-5-carboxylate synthase 2 (P5CS2) of Arabidopsis thaliana; In the filament the helical unit is a tetramer (GK tetramer core, two GPR dimers); Only the GK tetramer was modelled at high resolution; also called AtP5CS2-WT; WT AtP5CS2; source: E. coli Rosetta (DE3), purified (Ni-NTA, SUMO-tag removed with yeast ULP1, Superose 6 Increase SEC); not shown: His6, N-terminal, cleaved; …
B2: Arabidopsis thaliana delta-1-pyrroline-5-carboxylate synthase 1 (AtP5CS1) (enzyme, UniProt P54887 1-717, looked up)
chain: MEELDRSRAFARDVKRIVVKVGTAVVTGKGGRLALGRLGALCEQLAELNSDGFEVILVSSGAVGLGRQRLRYRQLVNSSFADLQKPQTELDGKACAGVGQSSLMAYYETMFDQLDVTAAQLLVNDSSFRDKDFRKQLNETVKSMLDLRVIPIFNENDAISTRRAPYQDSSGIFWDNDSLAALLALELKADLLILLSDVEGLYTGPPSDPNSKLIHTFVKEKHQDEITFGDKSRLGRGGMTAKVKAAVNAAYAGIPVIITSGYSAENIDKVLRGLRVGTLFHQDARLWAPITDSNARDMAVAARESSRKLQALSSEDRKKILLDIADALEANVTTIKAENELDVASAQEAGLEESMVARLVMTPGKISSLAASVRKLADMEDPIGRVLKKTEVADGLVLEKTSSPLGVLLIVFESRPDALVQIASLAIRSGNGLLLKGGKEARRSNAILHKVITDAIPETVGGKLIGLVTSREEIPDLLKLDDVIDLVIPRGSNKLVTQIKNTTKIPVLGHADGICHVYVDKACDTDMAKRIVSDAKLDYPAACNAMETLLVHKDLEQNAVLNELIFALQSNGVTLYGGPRASKILNIPEARSFNHEYCAKACTVEVVEDVYGAIDHIHRHGSAHTDCIVTEDHEVAELFLRQVDSAAVFHNASTRFSDGFRFGLGAEVGVSTGRIHARGPVGVEGLLTTRWIMRGKGQVVDGDNGIVYTHQDIPIQA
notes: Delta-1-pyrroline-5-carboxylate synthase 1 (P5CS1) of Arabidopsis thaliana; also called His6-AtP5CS1; not shown: His6, N-terminal, kept
B3: AtP5CS2-GK, truncated AtP5CS2 consisting of residues 1-290 (glutamate kinase domain) (domain or fragment, Arabidopsis thaliana, UniProt P54888 1-290, looked up)
chain: MTEIDRSRAFAKDVKRIVVKVGTAVVTGKGGRLALGRLGAICEQLAELNSDGFEVILVSSGAVGLGRQRLRYRQLVNSSFADLQKPQMELDGKACAGVGQSSLMAYYETMFDQLDVTVAQMLVTDSSFRDKDFRKQLSETVKAMLRMRVIPVFNENDAISTRRAPYKDSTGIFWDNDSLAALLSLELKADLLILLSDVEGLYTGPPSDSTSKLIHTFIKEKHQDEITFGEKSKLGRGGMTAKVKAAVNAAYGGVPVIITSGYAAENISKVLRGLRVGTLFHQDAHLWAPV
notes: Delta-1-pyrroline-5-carboxylate synthase 2 (P5CS2) of Arabidopsis thaliana, residues 1-290, the glutamate kinase (GK) domain; probably made as His6-SUMO fusion in E. coli and cleaved with ULP1 like the full-length AtP5CS2 (surmised); also called AtP5CS2 GK domain

Experiments:
[1] = molecular target: the molecule itself; experiment: cryo-EM structure; mixed state: about 5 μM purified protein in reaction buffer with all substrates (25 mM Tris-HCl pH 8.0, 150 mM NaCl, 20 mM glutamate, 10 mM MgCl2, 5 mM ATP, 0.5 mM NADPH), on ice about 30 min (AtP5CS1) or 60 min (AtP5CS2); filament of tetrameric helical units, focus refinement on the GK tetramer
[2] = molecular target: the molecule itself; experiment: negative-staining EM; purified protein about 2-4 μM incubated at 25 °C with substrates (ATP, glutamate, both, or all substrates = mixed state) at the concentrations of the activity assay; step seen: oligomers (tetramers) into filaments

Row | Protein | stoichiometry N [1] | binding result [2]
1 | B1 | 4 | 
2 | B2 | 4 | 
3 | B3 |  | binds
